According to PMC8623585 (Vaccines, 2021):

Columns and labels:
Human IL-6 receptor [1] = target: T1, Human IL-6 receptor (Homo sapiens, UniProt P08887); assay: ELISA; human IL-6R (2 µg/mL) immobilised on microtiter plates; serial dilutions of pIL6RmAb; detected with HRP-conjugated anti-human-gamma HC antibody; KD by non-linear regression, one-site binding model; conditions: both partners purified
T1 construct: interleukin 6 receptor (IL-6R), human; also called interleukin 6 receptor; source: bought: Sino Biological

Human IL-6 receptor [2] = target: T1, Human IL-6 receptor; assay: cell-based or functional assay

T1 sequence (P08887 20-365): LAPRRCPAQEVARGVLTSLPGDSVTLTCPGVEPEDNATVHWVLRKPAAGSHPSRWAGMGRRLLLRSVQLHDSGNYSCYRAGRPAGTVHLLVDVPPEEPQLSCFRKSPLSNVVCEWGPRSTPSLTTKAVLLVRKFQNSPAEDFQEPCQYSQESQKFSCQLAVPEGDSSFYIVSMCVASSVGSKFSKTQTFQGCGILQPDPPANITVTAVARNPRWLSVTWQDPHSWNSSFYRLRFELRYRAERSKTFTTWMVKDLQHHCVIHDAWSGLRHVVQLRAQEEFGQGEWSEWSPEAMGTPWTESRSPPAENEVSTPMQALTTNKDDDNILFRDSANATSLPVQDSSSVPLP

B1: Plant-produced IL6RmAb (anti-IL-6 receptor monoclonal antibody with the amino acid sequence of sarilumab) (antibody, V domains shown)
VH: EVQLVESGGGLVQPGRSLRLSCAASRFTFDDYAMHWVRQAPGKGLEWVSGISWNSGRIGYADSVKGRFTISRDNAENSLFLQMNGLRAEDTALYYCAKGRDSFDIWGQGTMVTVSS
VL: DIQMTQSPSSVSASVGDRVTITCRASQGISSWLAWYQQKPGKAPKLLIYGASSLESGVPSRFSGSGSGTDFTLTISSLQPEDFASYYCQQANSFPYTFGQGTKLEIK
notes: heavy chain of sarilumab; light chain of sarilumab; Full IgG1 with kappa light chain, heterotetramer of ~150 kDa; made in a glycoengineered N. benthamiana line; also called pIL6RmAb; anti-IL6R mAb; copies: 2 + 2
For B1, the Kd (Human IL-6 receptor [1]) was 0.083 nM, the “IC50 of inhibition of IL-6 signaling in luciferase reporter cells (Promega IL-6 Bioassay) with 25 ng/mL (~1.19 nM) recombinant human IL-6; blocks IL-6 with IL-6R” value (Human IL-6 receptor [2]) was 0.081 µg/mL and the “IC50 of inhibition of IL-6 signaling in luciferase reporter cells (Promega IL-6 Bioassay) with 25 ng/mL (~1.19 nM) recombinant human IL-6; blocks IL-6 with IL-6R (the same IC50 in molar units)” value (Human IL-6 receptor [2]) was about 0.54 nM.
